The nature of data set [1]: ^203Pb-conjugate biodistribution study in tumor-free immunocompetent mice.
Description: After that, the mice were divided in 6 groups of 10, denoted as groups A, B, C, D, E and F respectively, each comprising 5 male and 5 female.
The mice of group A were sacrificed at 5 min post-dose injection; the mice of group B were sacrificed at 30 min post-dose injection; the mice of group C were sacrificed at 1 hour post-dose injection; the mice of group D were sacrificed at 4 hours post-dose injection whereas the mice of group E were sacrificed at 24 hours post-dose injection.
The mice of group F were placed in metabolic cages and their urinary and fecal excretions were collected at 4 hours, 24 hours and 48 hours post-dose injection; they were sacrificed at 48 hours post-dose injection. […]
The tubes were counted for two min. A standard consisting of 5 μL of the solution injected to the mice was also counted for each group of mice. […]
The excretions of the mice of group F were also counted.
The percent injected dose per gram, noted as % ID/g, was calculated for each organ collected (mean±standard deviation) whilst the percent injected dose, noted as % ID, was calculated for the excretions of the mice of group F (mean±standard deviation).
Data set [2] can be described thus: Comparative biodistribution, ACMP linker, tumor-free immunocompetent mice. The data set is classed as in vivo, immunocompetent CD1 female mice. The conditions noted are these: 4 hours post-dose injection. As to the method: The study was aimed at assessing the biodistribution […] conjugate of the invention in that it comprises a linker constituted by a 4-amino-(1-carboxymethyl)piperidinyl group, of formula: […]
5 immunocompetent CD1 female mice, 7-8 weeks old, were injected intravenously with one ^212Pb-ACMP-conjugate dose.
The mice were sacrificed at 4 hour post-dose injection.
(§1) The tubes were counted for two min. Standards consisting of 5 μL of the solutions injected to the mice were also counted. The background was automatically subtracted from the counts. The standards were also used for decay correction.

For data set [3], the system named is subcutaneous PC-3 tumors. The data set is described as follows: ^212Pb-conjugate biodistribution study in xenograft-bearing mice (10 μCi per 14 ng). The data set is classed as in vivo, athymic nude mice. Here is the method:
15 male athymic nude mice, 7-8 weeks old and weighting 27.74±1.87 g at study initiation, were injected subcutaneously, into the right flank, with 10^6 PC-3 human prostate cancer cells in 100 μL of RPMI-1640 medium/Matrigel™ (v/v: 1/1). […] Then each mouse received intravenously (into a tail vein) one ^212Pb-conjugate dose. […] The tubes were counted for two min. […] The background was automatically subtracted from the counts. The standard was also used for decay correction.

Data set [4] concerns subcutaneous PC-3 tumors. The data set can be described thus: Comparative biodistribution, change of chelator (DOTAM vs DOTA), xenograft-bearing mice. Format: in vivo, athymic nude mice. The conditions noted are these: over the first 24 hours.
Excerpt: The instant study was aimed at comparing the biodistribution of the conjugate of the invention, labelled with ^212Pb, in athymic nude mice bearing a human prostate cancer cell tumor with that of a conjugate also labelled with ^212Pb and only differing from the conjugate of the invention in that the chelator corresponds to DOTA (1,4,7,10-tetraazacyclododecane-1,4,7,10-tetraacetic acid) and is of formula:
30 male athymic nude mice, 7-8 weeks old and weighting 27.90±1.9 g at study initiation, were injected subcutaneously, into the right flank, with 10^6 PC-3 human prostate cancer cells in 100 μL of RPMI-1640 medium/Matrigel™ (v/v: 1/1). The tumors were let grow until they reached 200-300 mm^3.
Each mouse of groups A, B and C received intravenously one ^212Pb-DOTAM-conjugate dose whilst each mouse of groups […] received intravenously one ^212Pb-DOTA-conjugate dose.
as §1

`CC(C)C[C@H](NC(=O)C[C@H](O)[C@H](CC(C)C)NC(=O)[C@H](Cc1c[nH]cn1)NC(=O)CNC(=O)[C@@H](NC(=O)[C@H](C)NC(=O)[C@H](Cc1c[nH]c2ccccc12)NC(=O)[C@H](CCC(N)=O)NC(=O)[C@@H](Cc1ccccc1)NC(=O)CCNC(=O)CCNC(=O)CN1CCN(CC(N)=O)CCN(CC(N)=O)CCN(CC(N)=O)CC1)C(C)C)C(N)=O` [^203Pb-conjugate, metal not drawn]: the “route of elimination (urinary, fecal excretion)” value in data set [1] (excretions collected at 4, 24 and 48 hours post-dose) was “mainly eliminated by renal excretion”. The biodistribution profile result in data set [1] (male and female mice, 5 min to 48 hours, 10 μCi per 28 ng) is “safe biodistribution profile”.
As for `CC(C)C[C@H](NC(=O)C[C@H](O)[C@H](CC(C)C)NC(=O)[C@H](Cc1c[nH]cn1)NC(=O)CNC(=O)[C@@H](NC(=O)[C@H](C)NC(=O)[C@H](Cc1c[nH]c2ccccc12)NC(=O)[C@H](CCC(N)=O)NC(=O)[C@@H](Cc1ccccc1)NC(=O)CN1CCC(NC(=O)CN2CCN(CC(N)=O)CCN(CC(N)=O)CCN(CC(N)=O)CC2)CC1)C(C)C)C(N)=O` [^212Pb-ACMP-conjugate, metal not drawn], the “safety profile relative to the -β-Ala-β-Ala- linker conjugate” value in data set [2] was “significantly lower safety profile”. Also, the “uptake in kidneys relative to the -β-Ala-β-Ala- linker conjugate” value in data set [2] (10 μCi per 4.1 ng) is listed as 5 times.
Regarding `CC(C)C[C@H](NC(=O)C[C@H](O)[C@H](CC(C)C)NC(=O)[C@H](Cc1c[nH]cn1)NC(=O)CNC(=O)[C@@H](NC(=O)[C@H](C)NC(=O)[C@H](Cc1c[nH]c2ccccc12)NC(=O)[C@H](CCC(N)=O)NC(=O)[C@@H](Cc1ccccc1)NC(=O)CCNC(=O)CCNC(=O)CN1CCN(CC(N)=O)CCN(CC(N)=O)CCN(CC(N)=O)CC1)C(C)C)C(N)=O` [^212Pb-conjugate, metal not drawn], the tumor/blood ratio entry in data set [3] (i.v., 10 μCi per 14 ng) is “high”. In data set [3] (mouse, in vivo, iv), the clearance entry was “fast clearance”. Besides, the “tumor retention versus ^212Pb-DOTA-conjugate” value in data set [4] is recorded as “higher”.

These data come from patent US20230372552A1, “CONJUGATE OR ITS SALT COMPRISING A GASTRIN-RELEASING PEPTIDE RECEPTOR ANTAGONIST AND USES THEREOF” (ORANO MED, priority 2020, published 2023).
